Test results reported in patent publication US20180117174A1 (GANYMED PHARMACEUTICALS, published 2018).
Blank lines part the entries; values can stand above or below the binder they belong to.

Key:
[1] = molecular target: T1, human claudin 18 splice variant 2 (CLDN18.2) (human); assay: flow cytometry (Table 6); APC-conjugated secondary antibody; binding assay 1
T1 construct: also called claudin 18 isotype 2

[2] = molecular target: T1, human claudin 18 splice variant 2 …; assay: flow cytometry (Table 6); APC-conjugated secondary antibody; binding assay 1; normalized to IMAB362
[3] = molecular target: T1, human claudin 18 splice variant 2 …; assay: flow cytometry, HEK293 cells stably expressing CLDN18.2; APC-conjugated secondary antibody; binding assay 3; normalized to IMAB362
[4] = molecular target: human claudin 18 splice variant 1 (CLDN18.1) (human, UniProt P56856 1-261); assay: flow cytometry, HEK293 cells stably expressing CLDN18.1 (column 'CLDN18.1 reactive')
[5] = molecular target: T1, human claudin 18 splice variant 2 …; assay: flow cytometry, HEK293 cells stably expressing CLDN18.2; APC-conjugated secondary antibody; binding assay 3

B1: chim mAB308 (antibody, V domains shown)
VH: QVQLQQSGPELVKPGASVKMSCKASGYTFTDYVISWVKQRTGQGLEWIGEIYPGSGSTYYNEKFKGKATLTADKSSNTAYMQLSSLTSEDSAVYFCARGVLLRAMDYWGQGTSVTVSS
VL: DIVMSQSPSSLAVSAGEKVTMSCKSSQSLLNSRTRKNYLAWYQQKPGQSPKLLIYWASTRESGVPDRFTGSGSGTDFTLTISSVQAEDLAVYYCKQSYNLYTFGGGTKLEIKR
EC50 [1]: 18.9 µg/mL
Max. binding [MFI] [1]: 15000 MFI
EC50 normalized [%] [2]: 3240%
Max. binding normalized [%] [2]: 81%

B2: mu mAB294 (antibody, V domains shown)
VH: QIQLVQSGPELKKPGETVKISCKASGYTFTNYGMNWVKQAPGKGLKWMGWINTNTGEPTYAEEFKGRFAFSLETSASTAYLQINNLKNEDTATYFCARLGFGNAMDYWGQGTSVTVSS
VL: DIVMTQSPSSLTVTAGEKVTMSCKSSQSLLNSGNQKNYLTWYQQKPGQPPKLLIYWASTRESGVPDRFTGSGSGTDFTLTISSVQAEDLAVYYCQNDYSYPLTFGAGTKLELK
notes: Tied by its number
EC50 normalized [%] [3]: 53%
Max. binding normalized [%] [3]: 12%
binding result [4]: no binding
EC50 [5]: 0.348 µg/mL
Max. binding [MFI] [5]: 989 MFI

B5: chim mAB279 (antibody, V domains shown)
VH: QVQLQQSGAELARPGASVKLSCKASGYTFTDYYINWVKQRTGQGLEWIGEIYPGSGNTYYNEKFKGKATLTADKSSSTAYMQLSSLTSEDSAVYFCARSYGAFDYWGQGTTLTVSS
VL: DIVMTQSQKFMSTSVGDRVSITCKASQNVRTAVAWYQQKPGQSPKALIYLASNRHTGVPDRFTGSGSGTDFTLTISNVQSEDLADYFCLQHWNYPLTFGGGTKLEIKR
EC50 [1]: 60 µg/mL
Max. binding [MFI] [1]: 4390 MFI
EC50 normalized [%] [2]: 10300%
Max. binding normalized [%] [2]: 24%

B6: mu mAB279 (antibody, mouse IgG2a, V domains shown)
VH: B5 VH
VL: DIVMTQSQKFMSTSVGDRVSITCKASQNVRTAVAWYQQKPGQSPKALIYLASNRHTGVPDRFTGSGSGTDFTLTISNVQSEDLADYFCLQHWNYPLTFGGGTKLEIK
notes: mouse IgG2a kappa
EC50 normalized [%] [3]: 4%
Max. binding normalized [%] [3]: 1%
binding result [4]: no binding
EC50 [5]: 0.027 µg/mL
Max. binding [MFI] [5]: 118 MFI

The next lines start with the values.

EC50 [1]: 32.3 µg/mL
Max. binding [MFI] [1]: 4080 MFI
EC50 normalized [%] [2]: 5540%
Max. binding normalized [%] [2]: 22%
B3: chim mAB62 (antibody, V domains shown)
VH: QVQLQQSGAELMKPGASVKISCKATGYTFSSYWIEWVKQRPGHGLEWIGEILPGSGSTNYNEKFKGKATFTADTSSNTAYMQLSSLTSEDSAVYYCARYDYPWFAYWGQGTLVTVSA
VL: QIVLTQSPAIMSASPGEKVTITCSASSSVSYMHWFQQKPGTSPKLWIYSTSNLASGVPARFSGSGSGTSYSLTISRMEAEDAATYYCQQRSSYPPTFGGGTKLEIKR

EC50 normalized [%] [3]: 4280%
Max. binding normalized [%] [3]: 35%
binding result [4]: no binding
EC50 [5]: 27.9 µg/mL
Max. binding [MFI] [5]: 2800 MFI
B4: mu mAB62 (antibody, mouse IgG2a, V domains shown)
VH: B3 VH
VL: QIVLTQSPAIMSASPGEKVTITCSASSSVSYMHWFQQKPGTSPKLWIYSTSNLASGVPARFSGSGSGTSYSLTISRMEAEDAATYYCQQRSSYPPTFGGGTKLEIK
notes: mouse IgG2a kappa
